Each block holds one binder with its values, some of them ahead of it.
Assays:
[1] = molecular target: T1, purified human WT full-length Tau protein (Tau441), His-tagged (human, UniProt P10636-8 1-441); assay: pull-down; Flag-NLRP3 (WT or mutant) immunoprecipitated from HEK-293T with anti-Flag on protein A/G agarose beads; incubated with 50 nM purified Tau441 and 1 mM acetyl CoA at 37°C for 2 h in 50 mM HEPES pH 8.0, 10 mM sodium butyrate, 1 mM DTT, 10% glycerol; blot with anti-Tau5 and anti-NLRP3; details: both partners purified
T1 construct: also called purified Tau441 protein; recombinant Tau441; source: E. coli ROSETTA 2(DE3)PLYSS, purified (Ni-NTA) by HUABIO

[2] = molecular target: T1, purified human WT full-length Tau …; assay: co-IP; competition: TNB peptide (0, 25, 50, 100, 200 µM) and purified Tau441 added to LPS-pretreated BV-2 cells; loss of Tau in the anti-NLRP3 immunoprecipitate; details: both partners purified

T1 sequence (P10636 other isoform, or with tags, fused parts or gaps): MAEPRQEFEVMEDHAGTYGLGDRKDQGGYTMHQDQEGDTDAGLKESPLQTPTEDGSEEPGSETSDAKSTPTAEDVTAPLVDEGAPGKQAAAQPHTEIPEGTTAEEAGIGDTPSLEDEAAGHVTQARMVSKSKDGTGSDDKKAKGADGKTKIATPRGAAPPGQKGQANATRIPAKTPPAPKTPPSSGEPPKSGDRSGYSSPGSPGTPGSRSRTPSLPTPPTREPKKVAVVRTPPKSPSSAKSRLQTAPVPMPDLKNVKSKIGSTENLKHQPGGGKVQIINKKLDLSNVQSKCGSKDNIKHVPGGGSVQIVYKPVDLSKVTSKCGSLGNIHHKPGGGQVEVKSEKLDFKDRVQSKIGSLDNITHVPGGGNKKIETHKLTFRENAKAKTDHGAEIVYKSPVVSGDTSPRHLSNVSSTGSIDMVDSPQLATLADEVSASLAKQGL

binding result [1]: binds
B1: Flag-mouse NLRP3 (GV362-EGFP-FLAG-mouse NLRP3), wild type (natural protein, UniProt Q8R4B8 1-1033, looked up)
chain: MTSVRCKLAQYLEDLEDVDLKKFKMHLEDYPPEKGCIPVPRGQMEKADHLDLATLMIDFNGEEKAWAMAVWIFAAINRRDLWEKAKKDQPEWNDTCTSHSSMVCQEDSLEEEWMGLLGYLSRISICKKKKDYCKMYRRHVRSRFYSIKDRNARLGESVDLNSRYTQLQLVKEHPSKQEREHELLTIGRTKMRDSPMSSLKLELLFEPEDGHSEPVHTVVFQGAAGIGKTILARKIMLDWALGKLFKDKFDYLFFIHCREVSLRTPRSLADLIVSCWPDPNPPVCKILRKPSRILFLMDGFDELQGAFDEHIGEVCTDWQKAVRGDILLSSLIRKKLLPKASLLITTRPVALEKLQHLLDHPRHVEILGFSEAKRKEYFFKYFSNELQAREAFRLIQENEVLFTMCFIPLVCWIVCTGLKQQMETGKSLAQTSKTTTAVYVFFLSSLLQSRGGIEEHLFSDYLQGLCSLAADGIWNQKILFEECDLRKHGLQKTDVSAFLRMNVFQKEVDCERFYSFSHMTFQEFFAAMYYLLEEEAEGETVRKGPGGCSDLLNRDVKVLLENYGKFEKGYLIFVVRFLFGLVNQERTSYLEKKLSCKISQQVRLELLKWIEVKAKAKKLQWQPSQLELFYCLYEMQEEDFVQSAMDHFPKIEINLSTRMDHVVSSFCIKNCHRVKTLSLGFFHNSPKEEEEERRGGRPLDQVQCVFPDTHVACSSRLVNCCLTSSFCRGLFSSLSTNRSLTELDLSDNTLGDPGMRVLCEALQHPGCNIQRLWLGRCGLSHQCCFDISSVLSSSQKLVELDLSDNALGDFGIRLLCVGLKHLLCNLQKLWLVSCCLTSACCQDLALVLSSNHSLTRLYIGENALGDSGVQVLCEKMKDPQCNLQKLGLVNSGLTSICCSALTSVLKTNQNFTHLYLRSNALGDTGLRLLCEGLLHPDCKLQMLELDNCSLTSHSCWNLSTILTHNHSLRKLNLGNNDLGDLCVVTLCEVLKQQGCLLQSLQLGEMYLNRETKRALEALQEEKPELTIVFEISW
notes: NOD-like receptor pyrin domain containing 3 (NLRP3), mouse, fusion with Flag; Plasmid from Genechem; also called GV362-EGFP-Flag-NLRP3; NLRP3-protein A/G agarose beads complexes; source: HEK-293T, transfected 48 h, immunoprecipitated with anti-Flag antibody on protein A/G agarose beads

binding result [2]: binds
B2: Tau–NLRP3-binding blocking (TNB) peptide (peptide)
peptide: LEDLEDVDLKKFKMHLEDYPP
notes: stretch of NLRP3 around K21/K22/K24 in the PYD domain; 2574.89 Da; An FITC-labelled form (FITC-TNB) was used only for microscopy; also called peptide TNB; source: synthetic peptide (Bioyeargene Biosciences, Fmoc solid-phase, purity 95.93%)

Source: publication PMC10941548, “Tau induces inflammasome activation and microgliosis through acetylating NLRP3” (Clinical and Translational Medicine, 2024)
